Measured values from patent US20050164929A1, “Methods of preventing and treating inflammatory bowel disease” (LUPINE LOGIC, INC., priority 2000, published 2005).
Where “and” joins values, the source holds several entries; their conditions need not be identical. Equal values may be shown once. Marks after values point to notes of the source that are not given here. Residues, ends and D or L forms follow the SMILES beside them. *: point of attachment. Cbz = O=C(OCc1ccccc1)*

Key:
[1] = system: COX-2 induction in Caco-2 cells; assay: COX-2 induction by CG53135 in presence of proteosome inhibitor; assay type: cell-based, human
Procedure: FIG. 18. Effect of NFkB on activation of CG53135 and stimulation of COX-2 in intestinal epithelial cells. NFkB promoter activity was assayed in HT-29 and Caco2 cell lines in the presence of CG53135-01 E. coli purified product.
ITF promoter activity in HT-29 cells was assayed. […] Thus NF-kB may not have a role inducing COX-2 expression in the presence of CG53135.

endothelial cells = assay: Proliferation summary for variants; assay type: cell-based; settings: in vitro
Procedure: (§1) Experiments were performed to evaluate the proliferative response of representative cell types to CG53135, e.g., a full-length tagged variant (CG53135-01), a deletion variant (CG53135-02), and a full-length codon-optimized untagged variant (CG53135-05).
(§2) CG53135-02 (batch 1 and 13) was also used in these experiments. Protein was expressed in E. coli, BLR (DE3) (Novagen), transformed with the deletion variant CG53135-02 inserted into a pET24a vector (Novagen). A research cell bank (RCB) was produced and cell paste containing CG53135-02 was produced by fermentation of cells originating from the RCB. Cell membranes were disrupted by high-pressure homogenization, and lysate was clarified by centrifugation. CG53135-02 was purified by ion exchange chromatography. The final protein fraction was dialyzed against the formulation buffer (100 mM citrate, 1 mM ethylenediaminetetraacetic acid (EDTA), and 1 M L-arginine).
(§3) CG53135-05, DEV10, which were also used in these experiments, was prepared by Cambrex Biosciences (Hopkinton, Mass.) according to Process 1 as described in Section 6.18.1, infra.
(§4) BrdU Incorporation: proliferative activity was measured by treatment of serum-starved cultured cells with a given agent and measurement of BrdU incorporation during DNA synthesis. Cells were cultured in respective manufacturer recommended basal growth medium supplemented with 10% fetal bovine serum or 10% calf serum as per manufacturer recommendations. Cells were grown in 96-well plates to confluence at 37° C. in 10% CO2/air (to subconfluence at 5% CO2 for dedifferentiated chondrocytes and NHOst). Cells were then starved in respective basal growth medium for 24-72 hours. CG53135 protein purified from E. coli or pCEP4/Sec or pCEP4/Sec-FGF 20× enriched conditioned medium was added (10 μL/100 μL of culture) for 18 hours. BrdU (10 μM final concentration) was then added and incubated with the cells for 5 hours. BrdU incorporation was assayed according to the manufacturer's specifications (Roche Molecular Biochemicals, Indianapolis, Ind.).
(§5) The above described experiments were also performed using CG53135-02 and CG53135-05 protein products, and the results are summarized in the Conclusion section below.

[2] = system: mesenchymal and epithelial cells; assay: Proliferation summary for variants; assay type: cell-based; settings: in vitro
Procedure: as §1, §2, §3, §4, §5

[3] = system: NIH 3T3 murine embryonic fibroblast cells; assay: BrdU incorporation bioassay of RP-HPLC peak fractions; assay type: cell-based, mouse; settings: for PI200: concentration giving BrdU incorporation at 2 times the background, serum-starved NIH 3T3, 18 hours; for induction of DNA synthesis / activity in proliferation assays: BrdU incorporation
Procedure: The biological activity of CG53135-05 related species collected from the 4 peaks identified by LC and MS was measured by treatment of serum-starved cultured NIH 3T3 murine embryonic fibroblast cells with various doses of the isolated CG53135-05 related species and measurement of incorporation of bromodeoxyuridine (BrdU) during DNA synthesis. For this assay, cells were cultured in Dulbecco's modified Eagle's medium supplemented with 10% fetal bovine serum. Cells were grown in 96-well plates to confluence at 37° C. in 10% CO2/air and then starved in Dulbecco's modified Eagle's medium for 24-72 hours. CG53135-05-related species were added and incubated for 18 hours at 37° C. in 10% CO2/air. BrdU ([…]) was added and incubated with the cells for 2 hours at 37° C. in 10% CO2/air. Incorporation of BrdU was measured by enzyme-linked immunosorbent assay according to the manufacturer's specifications (Roche Molecular Biochemicals, Indianapolis, Ind.).
Peak 4 was not included in this assay since insufficient material was collected (Peak 4 is less than 3% of the total peak area for CG53135-05).

NIH 3T3 cells = assay: BrdU incorporation, truncated vs full length FGF-20 conditioned medium; assay type: cell-based, mouse; settings: 10 ng/mL
Procedure: NIH 3T3 mouse fibroblasts were serum-starved, incubated with the indicated factor for 18 hours, and analyzed by a BrdU incorporation assay.
A vector expressing amino acids 24-211 of FGF-20, referred to as CG53135-17 (SEQ ID NOs:31 and 32), was prepared. The incorporation of BrdU by NIH 3T3 cells treated with conditioned medium obtained using the vector incorporating this truncated form was compared to the incorporation in response to treatment with conditioned medium using a vector encoding full length FGF-20. This experiment was carried out as described above.

[4] = system: soluble FGF receptors (FGFRs); assay: Receptor binding specificity: control growth factors with soluble FGFRs; assay type: cell-based; settings: all soluble FGFRs under analysis
Procedure: NIH 3T3 cells were serum-starved, incubated with the indicated growth factor (square=PDGF-BB; triangle=aFGF; circle=FGF-CX) either alone or together with the indicated soluble FGFR, and analyzed by a BrdU incorporation assay. Experiments were performed in triplicate and are represented as the percent BrdU increase in incorporation of BrdU relative to cells receiving the growth factor alone.
To determine the receptor binding specificity of FGF-20, we examined the effect of soluble FGF receptors (FGFRs) on the induction of DNA synthesis in NIH 3T3 cells by recombinant FGF-20. Four receptors have been identified to date (Klint P and Claesson-Welsh L. Front. Biosci., 4: 165-177, 1999; Xu X, et al. Cell Tissue Res., 296: 33-43, 1999). Soluble receptors for FGFR1β(IIIc), FGFR2a(IIIb), FGFR2β(IIIb), FGFR2a(IIIc), FGFR3a(IIIc) and FGFR4 were utilized.

[5] = Turbidity (aggregates) after ultrafiltration/diafiltration; assay type: physicochemical
Procedure: The experiment was conducted by performing the ultrafiltration/diafiltration at 2.5 mg/mL CG53135-05 in 0.2M arginine and 0.05 M sodium phosphate buffer at pH 7.0. After exchanging with 7 volumes of the final buffer (0.5M arginine and 0.05 M sodium phosphate buffer at pH 7.0), the diafiltrate is concentrated to ˜20 mg/mL. The diafiltrate is then diluted with the final buffer to ˜12.5 mg/mL and lyophilized. Polysorbate 80 is added either before or after the diafiltration to a final concentration of 0.01%.
All formulation contains 0.5 M arginine, 0.05 M sodium phosphate monobasic, and 0.01% polysorbate 80.

[6] = Solubility of protein in formulation buffers; assay type: physicochemical; settings: for Solubility of Process 2 protein, Arginine Sulfate vs Arginine Phosphate: Batches #K, #J
Procedure: Four unexpected properties of CG53135 were discovered and used to develop the new formulation: (1) high concentration of arginine, >0.4 M, increases the solubility to >30 mg/mL; (2) the use of sulfate salt of arginine increases the solubility by at least 2-6 folds; (3) the optimal concentration of sodium phosphate as a buffering salt is 50 mM, with a solubility of at least 1-2 fold increase in comparison with concentrations at 25, 75, and 100 mM; and (4) adding a surfactant during the diafiltration/ultrafiltration step minimizes the formation of aggregates. In development the lyophilized formulation, each component of the new formulation was evaluated for solubility individually. CG53135-05 was precipitated using the precipitate buffer (50 mM NaPi, 5 mM EDTA, 1 M L-Arginine HCl, 2.5 M (NH4)2SO4). The precipitate was washed with 25 mM sodium phosphate buffer at pH 6.5 to remove the residual arginine and ammonium sulfate. The following are examples of data.

CC(C)C[C@@H](C=O)NC(=O)[C@H](CC(C)C)NC(=O)[C@H](CC(C)C)NC(=O)OCc1ccccc1 [MG132] (Cbz-Leu-Leu-Leu-aldehyde)
block of COX-2 induction by CG53135 [1]: does not block COX-2 induction

CG53135-02: Codon optimized, amino acids 2-54 of SEQ ID NO: 2 removed; SEQ ID NOs 3 and 4
proliferation of endothelial cells (endothelial cells): induces proliferation
proliferation of mesenchymal and epithelial cells [2]: induce proliferation

CG53135-05 (DEV 10): Process 1 reference standard of CG53135-05 E. coli purified product
PI200 [3]: 1.0 ng/mL

CG53135-17: CG53135-05 minus first 23 amino acids at the N-terminus (amino acids 24-211 of FGF-20)
activity (BrdU incorporation) at lowest concentration tested (NIH 3T3 cells): retains high activity

PDGF-BB: control growth factor
effect of soluble receptor reagents on induction of DNA synthesis by control factor [4]: None of the soluble receptor reagents interfered

Peak 2: RP-HPLC peak at 27.3 min: CG53135-13 (residues 3-211)
induction of DNA synthesis / activity in proliferation assays [3]: dose-dependent manner
PI200 [3]: 11 ng/mL

Peak 3: RP-HPLC peak at 28.5 min: CG53135-05 (residues 1-211)
induction of DNA synthesis / activity in proliferation assays [3]: dose-dependent manner
PI200 [3]: 8.6 ng/mL

Process 2 protein: protein product (CG53135-05) produced by the improved production process, Process 2
Turbidity ([5]; Polysorbate added during ultrafiltration/diafiltration: No, 13.0 mg/mL): 4.6 NTU
Turbidity ([5]; Polysorbate added during ultrafiltration/diafiltration: Yes, 12.5 mg/mL): 20.9 NTU
Solubility of Process 2 protein ([6]; Arginine 0.05 M, Batches #1-#3): 0.7 mg/mL and 0.6 mg/mL and 0.5 mg/mL
Solubility of Process 2 protein ([6]; Arginine 0.15 M, Batches #1-#3): 2.2 mg/mL and 1.6 mg/mL
Solubility of Process 2 protein ([6]; Arginine 0.20 M, Batches #1-#3): 3.0 mg/mL and 4.7 mg/mL and 4.3 mg/mL
Solubility of Process 2 protein ([6]; Arginine 0.30 M, Batch #4): 5.8 mg/mL
Solubility of Process 2 protein ([6]; Arginine 0.35 M, Batch #4): 10.1 mg/mL
Solubility of Process 2 protein ([6]; Arginine 0.40 M, Batch #4): 9.8 mg/mL
Solubility of Process 2 protein ([6]; Arginine 0.45 M, Batch #4): 32.3 mg/mL
Solubility of Process 2 protein ([6]; Arginine 0.50 M, Batch #4 (not sufficient protein to be dissolved) and #5): 23.8* mg/mL and 37 mg/mL
Solubility of Process 2 protein, Arginine Sulfate vs Arginine Phosphate ([6]; first formulation line: 50 mM sodium phosphate monobasic and 0.15 M Arginine at pH 7): 4400 µg/mL and 2300 µg/mL
Solubility of Process 2 protein, Arginine Sulfate vs Arginine Phosphate ([6]; second formulation line: 50 mM sodium phosphate monobasic and 0.15 M Arginine at pH 7): 6500 µg/mL and 5200 µg/mL
Solubility of Process 2 protein ([6]; sodium phosphate monobasic 25 mM, 0.2 M arginine, Batches #A-#E): 4.01 mg/mL and 2.4 mg/mL and 2.6 mg/mL and 3.59 mg/mL
Solubility of Process 2 protein ([6]; sodium phosphate monobasic 50 mM, 0.2 M arginine, Batches #A-#E): 5.47 mg/mL and 4.7 mg/mL and 3.3 mg/mL and 4.3 mg/mL and 4.81 mg/mL
Solubility of Process 2 protein ([6]; sodium phosphate monobasic 75 mM, 0.2 M arginine, Batches #A-#E): 4.06 mg/mL and 2.5 mg/mL and 2.6 mg/mL and 3.0 mg/mL and 2.38 mg/mL
Solubility of Process 2 protein ([6]; sodium phosphate monobasic 100 mM, 0.2 M arginine, Batches #A-#E): 3.78 mg/mL and 2.8 mg/mL and 2.4 mg/mL and 2.9 mg/mL and 2.47 mg/mL

aFGF: acidic FGF, a factor known to interact with all of the FGFRs under analysis
effect of soluble receptor reagents on induction of DNA synthesis by control factor [4]: inhibit the induction of DNA synthesis
